A short description of the series: Nanoparticle size by dynamic light scattering (Example 2). In kind it is physicochemical. The note with it: distribution by number; FIG. 2D-F, GeloninD10 series. The procedure: The composition comprising the HerPBK10-GFPD10 nanoparticles and the composition comprising the HerPBK10-GeloninD10 were then subjected to dynamic light scattering (DLS) to determine the diameter of the resulting nanoparticles. Solutions of GFPD10 (no HerPBK10), GeloninD10 (no HerPBK10) and HerPBK10 (no GFPD10 or GeloninD10) were also measured by DLS.

B1: GeloninD10: cytotoxic polypeptide gelonin with a C-terminal deca-aspartic acid tag (protein)
chain: GLDTVSFSTKGATYITYVNFLNELRVKLKPEGNSHGIPLLRKKCDDPGKCFVLVALSNDNGQLAEIAIDVTSVYVVGYQVRNRSYFFKDAPDAAYEGLFKNTIKTRLHFGGSYPSLEGEKAYRETTDLGIEPLRIGIKKLDENAIDNYKPTEIASSLLVVIQMVSEAARFTFIENQIRNNFQQRIRPANNTISLENKWGKLSFQIRTSGANGMFSEAVELERANGKKYYVTAVDQVKPKIALLKFVDKDPKDDDDDDDDDD
As to B1, the “diameter / measured size (DLS)” value was “about 2.9 nm”.

The values are drawn from US20210077575A1, “NANOPARTICLES FOR THE TARGETED DELIVERY OF THERAPEUTIC POLYPEPTIDES” (Cedars-Sinai Medical Center, priority 2018, published 2021).
